Kd data for 1 molecule are collected here from PMC3333854 (Nucleic Acids Research, 2011).

The target of this assay is wild-type E. coli core RNA polymerase (E. coli, UniProt P0A8T7 1-1407; P0A8V2 1-1342; P0A7Z4 1-329; P0A800 1-91). The experiment in a line: fluorescence polarisation. For orientation: In fluorescence polarisation assays a small probe gives low polarisation when free and higher when bound to something large.
Sequence of wild-type E. coli core RNA polymerase (P0A8T7 whole entry, chain 1 of 4): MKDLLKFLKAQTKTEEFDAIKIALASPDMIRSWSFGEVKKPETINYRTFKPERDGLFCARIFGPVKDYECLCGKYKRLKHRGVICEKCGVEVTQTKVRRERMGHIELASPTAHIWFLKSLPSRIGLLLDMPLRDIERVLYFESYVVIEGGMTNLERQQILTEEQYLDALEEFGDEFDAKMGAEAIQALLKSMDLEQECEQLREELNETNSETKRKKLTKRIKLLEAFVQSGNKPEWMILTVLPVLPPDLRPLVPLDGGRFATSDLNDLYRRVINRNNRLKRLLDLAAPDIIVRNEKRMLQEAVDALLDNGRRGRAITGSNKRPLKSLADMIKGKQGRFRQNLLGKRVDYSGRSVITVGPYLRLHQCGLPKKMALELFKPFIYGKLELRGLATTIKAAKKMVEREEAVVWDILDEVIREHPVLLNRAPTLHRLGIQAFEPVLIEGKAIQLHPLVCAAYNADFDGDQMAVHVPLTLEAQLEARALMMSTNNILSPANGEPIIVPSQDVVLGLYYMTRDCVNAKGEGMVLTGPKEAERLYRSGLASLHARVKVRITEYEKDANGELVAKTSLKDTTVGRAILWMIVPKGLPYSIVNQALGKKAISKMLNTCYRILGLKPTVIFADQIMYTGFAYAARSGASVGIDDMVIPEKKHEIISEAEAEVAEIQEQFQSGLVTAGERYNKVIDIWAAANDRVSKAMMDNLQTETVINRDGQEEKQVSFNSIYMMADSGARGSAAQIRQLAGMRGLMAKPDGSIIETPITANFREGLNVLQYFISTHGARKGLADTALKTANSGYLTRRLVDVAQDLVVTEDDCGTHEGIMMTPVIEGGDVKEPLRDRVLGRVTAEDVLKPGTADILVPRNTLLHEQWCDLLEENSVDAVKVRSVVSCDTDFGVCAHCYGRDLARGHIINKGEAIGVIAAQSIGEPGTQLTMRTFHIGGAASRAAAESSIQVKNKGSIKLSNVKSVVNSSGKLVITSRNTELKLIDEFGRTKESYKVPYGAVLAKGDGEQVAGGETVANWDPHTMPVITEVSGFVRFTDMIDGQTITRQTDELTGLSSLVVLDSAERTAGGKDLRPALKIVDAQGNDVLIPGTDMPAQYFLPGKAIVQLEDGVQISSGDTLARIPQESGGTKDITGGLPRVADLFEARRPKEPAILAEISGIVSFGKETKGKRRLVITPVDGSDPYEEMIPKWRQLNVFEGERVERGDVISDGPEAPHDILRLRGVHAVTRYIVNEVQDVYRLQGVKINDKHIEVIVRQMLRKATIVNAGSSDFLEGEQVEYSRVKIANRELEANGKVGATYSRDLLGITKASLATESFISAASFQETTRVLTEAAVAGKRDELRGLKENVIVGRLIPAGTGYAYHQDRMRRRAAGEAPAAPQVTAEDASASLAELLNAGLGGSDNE
Sequence of wild-type E. coli core RNA polymerase (P0A8V2 whole entry, chain 2 of 4): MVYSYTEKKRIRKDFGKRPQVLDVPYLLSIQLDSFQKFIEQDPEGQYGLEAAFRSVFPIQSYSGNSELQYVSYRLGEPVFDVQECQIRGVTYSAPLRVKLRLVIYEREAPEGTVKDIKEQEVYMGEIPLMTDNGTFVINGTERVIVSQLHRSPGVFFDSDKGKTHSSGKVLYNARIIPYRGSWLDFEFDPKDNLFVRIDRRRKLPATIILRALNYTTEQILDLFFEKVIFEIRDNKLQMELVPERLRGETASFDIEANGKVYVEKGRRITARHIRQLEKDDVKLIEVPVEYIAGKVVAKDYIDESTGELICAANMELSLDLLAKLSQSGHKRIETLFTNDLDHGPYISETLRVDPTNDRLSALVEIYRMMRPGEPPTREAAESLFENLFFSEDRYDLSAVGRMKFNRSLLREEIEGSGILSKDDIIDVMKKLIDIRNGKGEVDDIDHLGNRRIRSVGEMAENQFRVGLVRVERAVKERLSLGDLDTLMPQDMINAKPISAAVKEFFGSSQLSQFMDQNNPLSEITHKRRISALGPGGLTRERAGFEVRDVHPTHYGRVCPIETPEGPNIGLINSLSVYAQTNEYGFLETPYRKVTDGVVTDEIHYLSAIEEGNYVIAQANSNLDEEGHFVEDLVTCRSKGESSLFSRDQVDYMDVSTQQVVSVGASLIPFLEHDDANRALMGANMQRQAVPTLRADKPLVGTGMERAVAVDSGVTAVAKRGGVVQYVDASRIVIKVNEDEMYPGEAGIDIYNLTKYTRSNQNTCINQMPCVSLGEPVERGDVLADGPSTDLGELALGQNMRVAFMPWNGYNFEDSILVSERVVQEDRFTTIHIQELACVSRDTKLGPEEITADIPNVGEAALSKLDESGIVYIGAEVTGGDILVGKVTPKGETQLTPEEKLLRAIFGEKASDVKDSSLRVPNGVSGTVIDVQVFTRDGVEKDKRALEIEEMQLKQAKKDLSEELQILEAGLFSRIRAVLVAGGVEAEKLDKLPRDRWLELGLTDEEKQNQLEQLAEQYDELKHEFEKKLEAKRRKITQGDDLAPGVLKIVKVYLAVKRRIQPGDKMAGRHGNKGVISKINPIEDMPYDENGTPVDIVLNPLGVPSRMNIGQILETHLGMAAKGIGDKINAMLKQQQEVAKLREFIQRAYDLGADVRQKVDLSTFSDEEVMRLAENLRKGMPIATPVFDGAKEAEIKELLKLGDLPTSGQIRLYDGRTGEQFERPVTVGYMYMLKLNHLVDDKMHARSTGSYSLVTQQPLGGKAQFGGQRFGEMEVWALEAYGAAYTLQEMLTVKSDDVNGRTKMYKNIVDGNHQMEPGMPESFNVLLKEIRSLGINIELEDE
Sequence of wild-type E. coli core RNA polymerase (P0A7Z4 whole entry, chain 3 of 4): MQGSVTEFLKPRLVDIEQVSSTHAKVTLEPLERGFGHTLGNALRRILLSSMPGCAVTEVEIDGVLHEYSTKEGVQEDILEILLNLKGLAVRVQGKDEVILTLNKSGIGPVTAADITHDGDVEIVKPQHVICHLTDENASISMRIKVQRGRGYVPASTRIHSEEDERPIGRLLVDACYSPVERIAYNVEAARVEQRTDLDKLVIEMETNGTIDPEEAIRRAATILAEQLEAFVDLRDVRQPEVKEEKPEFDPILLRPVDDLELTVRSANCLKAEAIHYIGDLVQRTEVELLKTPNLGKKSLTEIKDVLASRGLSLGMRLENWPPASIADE
Sequence of wild-type E. coli core RNA polymerase (P0A800 whole entry, chain 4 of 4): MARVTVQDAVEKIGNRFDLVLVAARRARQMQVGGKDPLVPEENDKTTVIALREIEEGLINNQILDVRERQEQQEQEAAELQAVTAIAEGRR

B1: DksA^A35C labeled with Alexa Fluor 546 maleimide (natural protein, Escherichia coli, UniProt P0ABS1 1-151, looked up)
chain: MQEGQNRKTSSLSILAIAGVEPYQEKPGEEYMNECQLAHFRRILEAWRNQLRDEVDRTVTHMQDEAANFPDPVDRAAQEEEFSLELRNRDRERKLIKKIEKTLKKVEDEDFGYCESCGVEIGIRRLEARPTADLCIDCKTLAEIREKQMAG
modifications: labeled with Alexa Fluor 546 maleimide (labeling efficiency 60-100%)
One may read the Kd as the equilibrium constant for the complex coming apart. Read a low Kd as a tighter complex. The molecule B1 registered a Kd of 0.102 ± 0.013 µM.
